# Assay results reported in patent US20090035322A1 (Regeneron, published 2009).
# T1: human CD20 (human, UniProt P11836 1-297)
# T1 sequence: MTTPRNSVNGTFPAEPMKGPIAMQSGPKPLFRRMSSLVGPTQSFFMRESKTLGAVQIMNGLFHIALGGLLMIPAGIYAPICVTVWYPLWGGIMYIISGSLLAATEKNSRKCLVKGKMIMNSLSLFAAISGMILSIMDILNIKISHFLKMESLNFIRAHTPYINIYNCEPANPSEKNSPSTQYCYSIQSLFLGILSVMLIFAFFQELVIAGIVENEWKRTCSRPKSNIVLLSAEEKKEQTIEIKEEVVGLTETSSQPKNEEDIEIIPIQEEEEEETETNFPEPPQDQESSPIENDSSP
# T2: mutant human CD20 #8 (Y77F, N163D, N166D) (human, UniProt P11836 1-297)
# T2 construct: Stably expressed on MG87 cells
# T2 chain: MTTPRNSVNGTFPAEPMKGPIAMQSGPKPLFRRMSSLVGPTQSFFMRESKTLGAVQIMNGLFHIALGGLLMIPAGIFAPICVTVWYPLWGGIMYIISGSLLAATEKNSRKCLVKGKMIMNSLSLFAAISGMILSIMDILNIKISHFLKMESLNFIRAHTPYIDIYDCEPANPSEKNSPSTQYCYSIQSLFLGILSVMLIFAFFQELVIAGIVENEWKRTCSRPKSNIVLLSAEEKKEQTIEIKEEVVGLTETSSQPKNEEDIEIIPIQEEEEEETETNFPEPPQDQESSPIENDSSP
# T3: mutant human CD20 #5 (P172S) (human, UniProt P11836 1-297)
# T3 construct: Stably expressed on MG87 cells
# T3 sequence: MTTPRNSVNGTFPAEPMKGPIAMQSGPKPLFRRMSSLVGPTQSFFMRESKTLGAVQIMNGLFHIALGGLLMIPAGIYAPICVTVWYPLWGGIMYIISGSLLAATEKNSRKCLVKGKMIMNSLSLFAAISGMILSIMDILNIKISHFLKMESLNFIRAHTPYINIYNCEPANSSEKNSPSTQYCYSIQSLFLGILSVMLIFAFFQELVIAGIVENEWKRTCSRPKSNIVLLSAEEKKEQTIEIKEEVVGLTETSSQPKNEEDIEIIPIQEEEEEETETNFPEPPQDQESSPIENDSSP
# T4: mutant human CD20 #1 (Y77F) (human, UniProt P11836 1-297)
# T4 construct: Human residues replaced by mouse residues; stably expressed on MG87 cells
# T4 sequence: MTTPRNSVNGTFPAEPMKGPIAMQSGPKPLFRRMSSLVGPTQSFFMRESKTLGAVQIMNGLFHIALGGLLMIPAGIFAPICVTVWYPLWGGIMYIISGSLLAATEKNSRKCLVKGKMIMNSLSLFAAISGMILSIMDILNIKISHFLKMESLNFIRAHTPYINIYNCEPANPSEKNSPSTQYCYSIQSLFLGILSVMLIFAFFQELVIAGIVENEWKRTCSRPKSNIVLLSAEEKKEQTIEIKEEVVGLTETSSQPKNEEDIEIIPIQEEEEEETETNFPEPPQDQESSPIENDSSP
# T5: mutant human CD20 #10 (A157V) (human, UniProt P11836 1-297)
# T5 construct: Stably expressed on MG87 cells
# T5 sequence: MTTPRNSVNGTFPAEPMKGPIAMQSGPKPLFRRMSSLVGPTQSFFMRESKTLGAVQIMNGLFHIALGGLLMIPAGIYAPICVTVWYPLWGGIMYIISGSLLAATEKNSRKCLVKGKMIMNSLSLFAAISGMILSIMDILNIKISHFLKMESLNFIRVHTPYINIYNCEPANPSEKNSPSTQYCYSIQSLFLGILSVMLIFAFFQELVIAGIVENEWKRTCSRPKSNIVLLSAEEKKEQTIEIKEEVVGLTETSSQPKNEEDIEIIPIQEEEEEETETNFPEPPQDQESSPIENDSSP
# T6: mutant human CD20 #6 (Y77F, N166D) (human, UniProt P11836 1-297)
# T6 construct: Stably expressed on MG87 cells
# T6 chain: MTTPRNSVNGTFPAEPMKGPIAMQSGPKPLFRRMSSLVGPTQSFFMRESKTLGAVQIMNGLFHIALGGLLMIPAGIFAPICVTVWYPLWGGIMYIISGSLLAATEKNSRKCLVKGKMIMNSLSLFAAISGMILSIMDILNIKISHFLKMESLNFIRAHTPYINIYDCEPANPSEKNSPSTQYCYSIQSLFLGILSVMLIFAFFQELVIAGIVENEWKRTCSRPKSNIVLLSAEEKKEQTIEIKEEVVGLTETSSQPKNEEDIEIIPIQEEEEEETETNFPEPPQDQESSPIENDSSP
# T7: mutant human CD20 #3 (A170S, P172S) (human, UniProt P11836 1-297)
# T7 construct: Stably expressed on MG87 cells
# T7 chain: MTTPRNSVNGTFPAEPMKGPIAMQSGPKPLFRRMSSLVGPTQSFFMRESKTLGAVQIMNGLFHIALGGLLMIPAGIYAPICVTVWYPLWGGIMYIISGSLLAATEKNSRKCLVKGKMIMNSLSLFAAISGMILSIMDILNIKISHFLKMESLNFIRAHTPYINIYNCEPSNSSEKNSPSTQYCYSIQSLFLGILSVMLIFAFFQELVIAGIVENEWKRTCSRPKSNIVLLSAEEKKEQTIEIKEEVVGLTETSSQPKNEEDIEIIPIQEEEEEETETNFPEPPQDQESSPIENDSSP
# What was measured:
# human CD20 [1] = target: T1, human CD20; assay: cell-based or functional assay
# human CD20 [2] = target: T1, human CD20; assay: cell-based or functional assay; remark: listed apart in the source
# [3] = target: T2, mutant human CD20 #8 (Y77F, N163D, …); assay: FACS, mutant-hCD20 MG87 cells; 100%=best antibody
# Protocol: (§1) Briefly, approximately 1×10⁶ cells from each stably transfected cell line expressing a mutant human CD20 were collected and incubated with each anti-human antibody, at 10 μg/ml, on ice for 1 hr, followed by incubation with APC-conjugated goat anti-human IgG (Jackson Immunolabs), at 10 μg/ml, on ice for 45 min. For each antibody, binding to each mutant human CD20 was assessed by flow cytometry.
# [4] = target: T3, mutant human CD20 #5 (P172S); assay: FACS, mutant-hCD20 MG87 cells; 100%=best antibody
# Protocol: as §1
# [5] = target: T4, mutant human CD20 #1 (Y77F); assay: FACS, mutant-hCD20 MG87 cells; 100%=best antibody
# Protocol: as §1
# [6] = target: T5, mutant human CD20 #10 (A157V); assay: FACS, mutant-hCD20 MG87 cells; 100%=best antibody
# Protocol: as §1
# [7] = target: T6, mutant human CD20 #6 (Y77F, N166D); assay: FACS, mutant-hCD20 MG87 cells; 100%=best antibody
# Protocol: as §1
# [8] = target: T7, mutant human CD20 #3 (A170S, P172S); assay: FACS, mutant-hCD20 MG87 cells; 100%=best antibody
# Protocol: as §1
Binder,"ADCC EC50 (pM), Daudi + PBMC (human CD20 [1]) [pM]","CDC, Daudi EC50 (human CD20 [2]) [nM]","CDC, RL EC50 (human CD20 [2]) [nM]",Percent of Binding to Mutant Human CD20 [3] [%],Percent of Binding to Mutant Human CD20 [4] [%],Percent of Binding to Mutant Human CD20 [5] [%],Percent of Binding to Mutant Human CD20 [6] [%],Percent of Binding to Mutant Human CD20 [7] [%],Percent of Binding to Mutant Human CD20 [8] [%]
"9H4-12 (antibody, V domains shown, Fully human IgG, constant region not specified; also called 9H4-12N) VH: EVQLVESGGGLVQPGRSLRLSCAASGFTFDDYAMHWVRQVPGKGLEWVSGISWNSGSIGYADSVKGRFTISRDNAKNSLYLQMNSLRAEDTALYYCAKDMGYGNYYHYGMDVWGQGTTVTVSS VL: DIVLTQSPATLSLSPGERATLSCRASQSVSSYLAWYQQKPGQAPRLLICDASHRATRIPARFSGSGSGTDFTLTISSLEPEDFAVYYCQQRSNWPITFGQGTRLEIK",33.8,51.1,29.6,0,2,19,52,1,0
"9C11-14 (antibody, V domains shown, Fully human IgG, constant region not specified; also called 9C11-14N) VH: QVQLVESGGDSVKPGGSLRLSCAASGFTFSDSYMTWIRQAPGKGLEWVSFISSSGSTIYYADSVKGRFTISRDNVKKSLYLQMNRLRAEDTAVYYCAREEPGNYVYYGMDVWGQGTTVTVSS VL: EIVVTQSPATLSLSPGERATLSCRTSQTTTSYLAWYRQKPGQAPRLLIYDASNRAAGIPARFSGSGSGTDFTLTINSLEPEDFAVYYCQLRTNWITFGQGTRLEIK",10.2,7.14,12,100,29,89,83,87,0
